The labels stand for the following.
T1: AT8 peptide (amino acids 195-215 of tau) (human, phospho-peptide; the phosphorylated sites are not stated; immobilized on streptavidin biosensor tips)
T1 peptide: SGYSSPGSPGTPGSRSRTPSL

T2: Tau phospho-peptide (pS235) (human)
T2 construct: also called pS235 phospho-peptide
T2 peptide: KVAVVRTPPK[pS]PSSAKPS

T3: Tau204-222 phospho-peptide (pT212) (human, also: SCBiot-(dPEG4) in the ELISA)
T3 peptide: GTPGSRSR[pT]PSLPTPPTRE

T4: Tau204-222 phospho-peptide (pS214) (human, also: SCBiot-(dPEG4) in the ELISA)
T4 peptide: GTPGSRSRTP[pS]LPTPPTRE

T5: wtTau C2 (human)
T5 peptide: PTREPKKVA

T6: Tau204-222 phospho-peptide (pT212/pS214) (human, also: SCBiot-(dPEG4) in the ELISA)
T6 peptide: GTPGSRSR[pT]P[pS]LPTPPTRE

T7: AC04 peptide (human, pT212, pT217: CSR(pT)PSLP(pT)PPTREPK)
T7 peptide: CSRXPSLPXPPTREPK

B1: VY007 (antibody, V domains shown)
VH: EVQLVESGGGLVQPGGSLRLSCAASRFTFSNYNMNWVRQAPGKGLEWISYISSSSSTIYYADSVKGRFTISRDNAKNSLSLQMNSLRDEDTAVYYCASLGRGYWGQGTLVTVSS
VL: not shown
B2: VY001 (antibody, V domains shown)
VH: B1 VH with R26G, N31S, S56N, I70V, S80Y, S98T, T111I, V112A
VL: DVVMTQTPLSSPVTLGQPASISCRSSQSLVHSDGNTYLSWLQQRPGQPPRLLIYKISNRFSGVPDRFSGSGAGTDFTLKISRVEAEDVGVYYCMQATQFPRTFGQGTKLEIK
B3: VY006 (antibody, V domains shown)
VH: EVQLVESGGGLVQPGGSLRLSCAASGFTFSSYTMNWVRQAPGKGLEWVSYISSSSSTIYYADSVKGRFTISRDNAKNSLYLQMNSLRDEDTAVYYCASLGRGDCWGQGTLVTVSS
VL: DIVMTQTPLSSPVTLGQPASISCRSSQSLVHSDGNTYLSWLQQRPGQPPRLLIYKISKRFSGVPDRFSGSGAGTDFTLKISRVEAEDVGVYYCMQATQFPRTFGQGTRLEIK
B4: VY013 (antibody, V domains shown)
VH: QVTLKESGPVLVKPTETLTLTCTVSGFSLINARMAVSWIRQPPGKALEWLAHIFSNDEKSYSTSLKSRLTISKDTSKSQVVLIMTNMDPVDTATYYCARIRGYSYNYGMDVWGQGTTVTVSS
VL: DIVMTQSPLSLPVIPGEPASISCRSSQSLLHSNGYIYLDWYLQKPGQSPQLLIYVGSNRASGVPDRFSGSGSGTDFKLKISRVEAEDVGVYYCMQTLQIPRTFGGGTKVEIK
B5: VY014 (antibody, V domains shown)
VH: EVQLVESGGGLVQPGGSLRLSCAASGFTFNNYDMHWVRQAAGKGLEWVSTIGAAGDTYYPGSVKGRFIISRENAKNSLYLQMNSLRAGDTAVYYCARAGETLEGATIGYYYGMDVWGQGTTVTVSS
VL: B4 VL with V3L, I14T, I36N, V55L, K77T, I80F, V90L, T96A, R101L
B6: VY019 (antibody, V domains shown)
VH: QVQLQESGPGLVKPSETLSLTCTVSGGSISSYYWTWIRQPAGKGLEWIGRIDTSGSTNYNPSLKSRVTMSIDTSKKQFSLKLSSVTAADTAVYYCARGGDGYRYWGQGTLVTVSS
VL: SYELTQPPSVSVSPGQTARITCSGDALPKQYACWYQQKPGQAPVLVIYKDSERPSGIPERFSGSSSGTTVTLTITGVQAEDEADYYCQSTDSSGSWVFGGGTKLTVL
B7: VY016 (antibody, V domains shown)
VH: EVQLVESGGGLVQPGGSLRLSCAASGFTFSSYSMNWVRQAPGKGLEWVSYISRSGSTIYYADSVEGRFTISRDNAYNSLYLQMISLRDDDTAVYYCARGNWAYWGQGILVTVSS
VL: QSVLTQPPSVSGAPGQRVTISCTGSSSNIGAGYDVHWYQQLPGTAPKLLIYGNSNRPSGVPDRFSGSKSGTSASLAITGLQAEDETDFYCQSYDSSLSGSVFGGGTKLTVL
B8: VY012 (antibody, V domains shown)
VH: EVQLLESGGGLVQPGGSLRLSCAASGFTYSSYAMSWVRRAPGKGLEWISIISGSSSITYYADSMKGRFTISRDNSKNTLFLQMNSLRAEDTAVYYCAKGGRYGYFQHWGQGTLVTVSS
VL: SYVLTQPPSVSVAPGQTARITCGGNNIGSKSVHWYQQKPGQAPVLVVYDDSDRPSGIPERFSGSNSGNTATLTISRVEAGDEADYYCQVWDSSSDPVVFGGGTMLTVL
B9: VY009 (antibody, V domains shown)
VH: QITLKESGPTLVKPTQTLTLTCTLSGFSLSTSEVGVGWIRQPPGKALEWLAIIYWNDHKRYSPSLKNRLTFTKDTSKNQVVLTMTNMDPVDTATYYCARRVTGEGFDPWGQGTLVTVSS
VL: B6 VL with C33Y, Y48F, S51T, T75S, T90A, W96Y, G100T, L104V
B10: VY004 (antibody, V domains shown)
VH: EVQLVESGGGLVQAGGSLRLSCAASGFTFSDYSMNWVRQAPGKGLEWVSYIRSSSSIIYYADSVKGRFTISRDNAKNSLHLQMNSLRDEDTAVYYCARRGHFDYWGQGTLVTVSS
VL: EIVLTQSPATLSLSPGERATLSCRASQSVSDYLAWYQQKPGQAPRLFIYDVSKRATGIPARFSGSGSGTDFTLTISSLEPEDFAVYYCQQRSNWPLTFGGGTKVEIK
B11: VY005 (antibody, V domains shown)
VH: B3 VH with T33S, V48I, S55N, Y59K, S98R, L99R, G100S, R101L, C104Y, T112I
VL: DIQLTQSPSFLSASVGDRVTITCRASQGISCSLAWYQQKPGKAPKLLIYAASTLQSGVPSRFSGSGSGTEFTLTISSLQPEDFATYYCQQFNSYPFTFGPGTKVDIK
B12: VY018 (antibody, V domains shown)
VH: QVQLQESGPGLVKPSETLSLTCTVSGGSISNYYWSWIRQPAGKGLEWIGRIYTSGDTYYNPSLQSRVTMSVDTSKNQFSLKLSAVTAADTAVYYCARAGIVGTPGLGMDVWGQGTTVTVSS
VL: SYELTQPPSVSVSPGQTARITCSGEALPKQYAYWYQQKPGQAPVLVIYKDSERPSGIPERFSGSSSGTTVTLTISGVQAEDEADYYCQSADSSGTYRVFGGGTKLTVL
B13: VY017 (antibody, V domains shown)
VH: B10 VH with A14P, D31S, I57T, N77K, H80Y, G100S, H101I, F102A
VL: EIVLTQSPATLSSSPGERATLSCRASQSVTSYLNWYQQKPGQAPRLLIYDASNRATGIPARFSGSGSGTDFTLTISSLEPEDFALYYCQQRSNWPYTFGQGTKLEIK

Numbering of substitutions follows the chain as printed. Non-standard residues stand in square brackets, D forms with d. No end group written: not given here. pT = C[C@@H](OP(=O)(O)O)[C@H](N)C(=O)O; pS = N[C@@H](COP(=O)(O)O)C(=O)O

This note sets out measurements from patent US20240059766A1 (VOYAGER THERAPEUTICS, published 2024).

As a reminder, the Kd is the equilibrium constant for the complex coming apart. The low end stands for tighter binding, the high end for weaker binding. As a reminder, the EC50 is the concentration that produces a half-maximal response. Higher therefore signals a need for much substance.

Sequence of iPHF (P10636 other isoform, or with tags, fused parts or gaps): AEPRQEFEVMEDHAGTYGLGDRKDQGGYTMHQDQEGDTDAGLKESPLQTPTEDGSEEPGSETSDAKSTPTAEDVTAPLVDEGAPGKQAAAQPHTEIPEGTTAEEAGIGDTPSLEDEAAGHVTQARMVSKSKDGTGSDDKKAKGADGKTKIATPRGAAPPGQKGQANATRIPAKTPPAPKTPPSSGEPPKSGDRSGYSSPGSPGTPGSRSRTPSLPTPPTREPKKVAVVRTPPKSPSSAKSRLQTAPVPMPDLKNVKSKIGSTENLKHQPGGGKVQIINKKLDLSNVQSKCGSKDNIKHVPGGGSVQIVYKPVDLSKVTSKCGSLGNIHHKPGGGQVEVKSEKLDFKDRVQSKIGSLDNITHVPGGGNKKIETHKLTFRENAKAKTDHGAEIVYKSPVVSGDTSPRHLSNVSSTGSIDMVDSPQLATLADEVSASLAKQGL

The first experiment addresses T1, AT8 peptide (amino acids 195-215 of tau). As to the kind of experiment: BLI (Octet), peptide on streptavidin tip. The procedure:
Briefly, phospho-peptides were immobilized on streptavidin biosensor tips and the binding ability of each antibody was assessed using an eight-point concentration gradient.
(In BLI a coated tip is dipped into the sample, and binding shifts an interference pattern.)
In the case of B1, the Kd amounted to 0.0182 nM.

B2 gave a Kd of 0.00435 nM.

The molecule B3 displayed a Kd of 0.00382 nM.

For another experiment, the target named is wild type tau (human, UniProt P10636 2-758). As to the kind of experiment: direct ELISA, coated antigen. The protocol: (§1) A set of recombinant human IgG1 antibodies were prepared with clone-specific variable domain pairs selected from those presented in Table 1 and human IgG1 constant domains. These candidate antibodies were analyzed for binding to ePHF and specificity for ePHF over wild type tau by direct ELISA.
Sequence of wild type tau (P10636 other isoform, or with tags, fused parts or gaps limits assumed): as the sequence (P10636 other isoform, or with tags, fused parts or gaps) above
(§2) For direct ePHF and wildtype tau ELISA, plates were first coated with ePHF or wild type tau. Antigen solutions were prepared in PBS and 50 μL were pipetted into each well. Plates were covered and incubated for one hour at 37° C. or overnight at 4° C. Plates were then washed and blocked by addition of 150 μl of blocking buffer to each well and incubated one hour at room temperature. Plates were then washed before addition of serially diluted candidate antibody samples prepared in blocking buffer. Detection of candidate antibody binding was carried out by washing plates and adding a solution of enzyme-labeled secondary antibody in blocking buffer to each well. Secondary antibody binding was detected by addition of substrate and spectrophotometric analysis of resulting reaction product.
Molecule B4 had an EC50 of 0.98 nM.

B5 came in with a concentration for a half-maximal effect (EC50) of 0.04 nM.

For B6, the binding result is given as “no binding”.

For B7, the binding result is on record as “no binding”.

B8 displayed an EC50 of 0.01 nM.

For a further experiment, the target named is T8, Enriched paired helical filament (ePHF; sarkosyl insoluble tau) (human, UniProt P10636 2-758, pathological (hyperphosphorylated) tau isolated from brain; sites not stated).
T8 construct: aggregate isolated from AD frontal cortical tissue
T8 sequence (P10636 other isoform, or with tags, fused parts or gaps limits assumed): as the sequence (P10636 other isoform, or with tags, fused parts or gaps) above
Put plainly: direct ELISA, coated antigen. The procedure:
as §1, §2
For orientation: ELISA stands for enzyme-linked immunosorbent assay.
In the case of B4, the EC50 was 0.06 nM.

B5 yielded an EC50 of 6.23 nM.

On to B9, for which the EC50 came out at 1.74 nM.

In the case of B6, the binding result is recorded as “no binding”.

B10 displayed an EC50 of 0.07 nM.

Regarding B7, the binding result is “no binding”.

B8 yielded an EC50 of 0.04 nM.

Take B1: the EC50 is 0.18 nM.

B2: the EC50 amounted to 0.02 nM.

B11 gave a 50% effective concentration (EC50) of 0.07 nM.

As for B3, the response was half-maximal at 0.11 nM (EC50).

A further experiment addresses iPHF (UniProt P10636-8 2-441). Put plainly: BLI (Octet), antibody on biosensor tip. The procedure: Anti-human tau antibodies were assessed for affinity for iPHF by Octet (ForteBio, Menlo Park, CA) analysis. A set of recombinant human IgG1 antibodies were prepared with clone-specific variable domain pairs selected from those presented in Table 1 and human IgG1 constant domains. Candidate antibodies were immobilized on biosensor tips (ForteBio) in kinetic buffer (ForteBio). Biosensor tips were then washed before introduction of a solution of iPHF in kinetic buffer for analysis of association and dissociation with candidate antibodies.
Turning to B4, the Kd was found to be 2.9 nM.

In turn, B5 registered a Kd of 5.3 nM.

On to B12, for which the Kd is 3 nM.

The molecule B9 gave a Kd of 1.1 nM.

The molecule B10 returned a Kd of 3.7 nM.

B13 registered a Kd of 3.7 nM.

B8 had a Kd of 5.1 nM.

Regarding B1, the Kd was determined as 0.6 nM.

The molecule B2 registered a Kd of 7.7 nM.

B11 gave a Kd of 1 nM.

B3 displayed a Kd of 1.5 nM.

A further experiment has as its target T2, Tau phospho-peptide (pS235). As to the kind of experiment: one point ELISA on the pS235 peptide.
With B12, the binding result is recorded as “no binding (tested: not printed (one point))”.

For the molecule B9, the binding result is reported as “no binding (tested: not printed (one point))”.

As to B6, the binding result is reported as “no binding (tested: not printed (one point))”.

A further experiment concerns the target T9, Tau191-214 phospho-peptide (pS199) (human, pS199 (phosphoserine); SCBio-4PEG in the ELISA).
T9 construct: also called pS199 peptide
Put plainly: one point ELISA. From the text:
(§3) One-point ELISA was used to determine differential binding based on the individual phosphorylation patterns of each peptide. OD values (450 nm) were collected (as shown in Table 13), where a stronger positive signal is shown as a higher OD value, which is indicative of increased binding.
Molecule B1 came in with an OD450 of 0.057 OD450 nm.

In the case of B2, the OD450 came to 0.059 OD450 nm.

Turning to B3, the OD450 amounted to 0.054 OD450 nm.

The target in another experiment is T10, SCBio-4PEG-Peptide (Tau191-214) pS199-old (human, pS199; SCBio-4PEG at the peptide as in the table head).
T10 construct: the suffix old is not explained
T10 sequence (peptide, as listed by the source): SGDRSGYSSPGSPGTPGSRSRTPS
As to the kind of experiment: one point ELISA.
From the text: as §3
In turn, B1 came in with an OD450 of 0.057 OD450 nm.

On to B2, for which the OD450 was determined as 0.059 OD450 nm.

As for B3, the OD450 came out at 0.063 OD450 nm.

In a further experiment the target is T3, Tau204-222 phospho-peptide (pT212). Put plainly: one point ELISA.
From the text: as §3
In turn, B10 displayed an OD450 of 0.082 OD450 nm.

On to B11, for which the OD450 came out at 0.087 OD450 nm.

The target of another experiment is T4, Tau204-222 phospho-peptide (pS214). Put plainly: one point ELISA.
From the text: as §3
B10 showed an OD450 of 0.069 OD450 nm.

Molecule B11 gave an OD450 of 0.092 OD450 nm.

The next experiment addresses T5, wtTau C2. Put plainly: one point ELISA.
From the text: as §3
The molecule B10 displayed an OD450 of 0.169 OD450 nm.

With B11, the OD450 was found to be 0.153 OD450 nm.

The target in another experiment is T6, Tau204-222 phospho-peptide (pT212/pS214). Put plainly: one point ELISA.
From the text: as §3
For the molecule B10, the OD450 amounted to 0.067 OD450 nm.

As for B11, the OD450 was 0.111 OD450 nm.

In another experiment the target is T7, AC04 peptide. As to the kind of experiment: one point ELISA.
From the text: as §3
For B10, the OD450 came to 2.85 OD450 nm.

B11 had an OD450 of 2.83 OD450 nm.

In the next experiment the target is T9, Tau191-214 phospho-peptide (pS199). Put plainly: BLI.
As for B1, the binding result was “no binding”.

Consider B2, for which the binding result is on record as “no binding”.

As to B3, the binding result is given as “no binding”.
